T1: HD-PTP Bro1 domain (residues 1-361) (UniProt Q9H3S7 1-361)
T1 construct: His Domain Protein Tyrosine Phosphatase (HD-PTP), Bro1 domain, residues 1-361; cloned into pNIC-28a-Bsa4; No tag cleavage is described for the His6-tagged proteins; The vector pNIC28-Bsa4 probably adds an N-terminal His6 tag with a TEV site (surmise); also called His Domain Protein Tyrosine Phosphatase Bro1; source: E. coli BL-21(DE3), purified (Nickel beads, MonoQ anion exchange, Superdex200 SEC)
T1 sequence (looked up): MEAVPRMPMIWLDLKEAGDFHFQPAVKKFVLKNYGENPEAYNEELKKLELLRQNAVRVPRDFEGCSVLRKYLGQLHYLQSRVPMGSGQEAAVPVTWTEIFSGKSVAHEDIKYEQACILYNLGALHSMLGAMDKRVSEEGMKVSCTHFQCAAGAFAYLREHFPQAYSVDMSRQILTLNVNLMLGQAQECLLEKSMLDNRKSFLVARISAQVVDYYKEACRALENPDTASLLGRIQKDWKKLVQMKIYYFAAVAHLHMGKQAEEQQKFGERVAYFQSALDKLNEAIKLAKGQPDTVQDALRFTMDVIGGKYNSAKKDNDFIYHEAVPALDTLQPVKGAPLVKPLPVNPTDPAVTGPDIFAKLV

T2: HD-PTP Bro1-CC-PRR (residues 1-738) (UniProt Q9H3S7 1-738)
T2 construct: His Domain Protein Tyrosine Phosphatase (HD-PTP), Bro1 and coiled-coil domains plus the proximal region of the PRR (714-738), residues 1-738; cloned into pET28a (NdeI/XhoI); immobilised by the His6 tag on the HTE chip; also called HD-PTP_(Bro1-CC-PRR (+tag)); source: E. coli BL-21(DE3), purified (Nickel beads, MonoQ anion exchange, Superdex200 SEC); not shown: His6, N-terminal, kept
T2 sequence (looked up): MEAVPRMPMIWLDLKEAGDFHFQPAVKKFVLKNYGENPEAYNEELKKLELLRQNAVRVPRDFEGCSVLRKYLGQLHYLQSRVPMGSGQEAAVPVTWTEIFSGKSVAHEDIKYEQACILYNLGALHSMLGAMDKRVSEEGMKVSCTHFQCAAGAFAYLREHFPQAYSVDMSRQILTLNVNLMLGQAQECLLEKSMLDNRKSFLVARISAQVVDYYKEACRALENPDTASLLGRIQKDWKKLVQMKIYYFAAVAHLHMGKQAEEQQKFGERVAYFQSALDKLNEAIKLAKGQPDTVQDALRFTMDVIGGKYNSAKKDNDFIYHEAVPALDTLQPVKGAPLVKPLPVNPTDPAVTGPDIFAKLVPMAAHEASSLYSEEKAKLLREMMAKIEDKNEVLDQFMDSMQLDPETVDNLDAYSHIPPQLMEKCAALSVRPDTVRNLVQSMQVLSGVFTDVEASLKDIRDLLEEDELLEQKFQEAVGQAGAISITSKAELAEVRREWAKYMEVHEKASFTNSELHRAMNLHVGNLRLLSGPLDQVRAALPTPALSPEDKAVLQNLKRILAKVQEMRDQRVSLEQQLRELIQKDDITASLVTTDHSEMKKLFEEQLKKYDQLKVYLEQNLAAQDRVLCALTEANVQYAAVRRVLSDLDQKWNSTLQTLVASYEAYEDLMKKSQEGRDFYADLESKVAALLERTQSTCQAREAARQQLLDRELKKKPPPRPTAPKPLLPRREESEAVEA

B1: GST-tagged full length CHMP4B (natural protein, UniProt Q9H444 1-224, looked up)
chain: MSVFGKLFGAGGGKAGKGGPTPQEAIQRLRDTEEMLSKKQEFLEKKIEQELTAAKKHGTKNKRAALQALKRKKRYEKQLAQIDGTLSTIEFQREALENANTNTEVLKNMGYAAKAMKAAHDNMDIDKVDELMQDIADQQELAEEISTAISKPVGFGEEFDEDELMAELEELEQEELDKNLLEISGPETVPLPNVPSIALPSKPAKKKEEEDDDMKELENWAGSM
notes: CHMP4B (ESCRT-III subunit), full length; Captured on the chip by an anti-GST antibody; also called FL-CHMP4B; source: E. coli C41, purified (GSTrap FF, glutathione elution)
B2: CHMP4B peptide (residues 205-224) (peptide)
peptide: KKKEEEDDDMKELENWAGSM
notes: CHMP4B, C-terminal residues 205-224; also called peptide from the C-terminus of CHMP4B; source: synthetic peptide (Generon Ltd, UK)
B3: UBAP1 peptide (residues 261-280) (peptide)
peptide: SNIKSLSFPKLDSDDSNQKT
notes: UBAP1 (ESCRT-I subunit), central region, residues 261-280; also called central region of UBAP1; source: synthetic peptide (Generon Ltd, UK)

Columns and labels:
Conditions in all cases: both partners purified
[1] = target: T1, HD-PTP Bro1 domain (residues 1-361); experiment: SPR; ProteOn XPR36; GST-FL-CHMP4B captured on a GLC chip derivatised with anti-GST antibody (3000-4000 RU); HD-PTP proteins as analytes; equilibrium binding model; 25 °C; 10 mM HEPES pH 7.4, 150 mM NaCl, 0.05% Tween-20
[2] = target: T2, HD-PTP Bro1-CC-PRR (residues 1-738); experiment: as above
[3] = target: T2, HD-PTP Bro1-CC-PRR (residues 1-738); experiment: SPR; ProteOn XPR36; His6-tagged HD-PTP Bro1-CC-PRR immobilised on an HTE chip (5000-8000 RU); synthetic peptides as analytes; equilibrium binding model; 25 °C; 10 mM HEPES pH 7.4, 150 mM NaCl, 0.05% Tween-20

Binder	Kd [1]	Kd [2]	Kd [3]
B1	4.88 ± 0.3 µM	1.1 ± 0.1 µM	–
B2	–	–	30.9 ± 0.2 µM
B3	–	–	57.5 ± 3.1 µM

Source: publication PMC5567221, “The open architecture of HD-PTP phosphatase provides new insights into the mechanism of regulation of ESCRT function” (Scientific Reports, 2017)
